Data on ten molecules can be found in PMC3259534.

Usually Kd stands for the equilibrium constant for the complex coming apart. A higher Kd goes with a looser complex.

The target in assay [1] is MRG15 MRG W172A (human) (UniProt Q9UBU8). The assay can be described thus: ITC. (In general: Isothermal titration calorimetry measures the heat released or taken up as one component is titrated into another.)
The target in assay [2] is MRG15 MRG M273A (human) (UniProt Q9UBU8). Put plainly: ITC.
Assay [3] concerns the target MRG15 MRG M228A (human) (UniProt Q9UBU8). The assay can be described thus: ITC.
In assay [4] the target is MRG15 MRG V227A (human) (UniProt Q9UBU8). Put plainly: ITC.
For assay [5], the target named is MRG15 MRG V268A (human) (UniProt Q9UBU8). The assay can be described thus: ITC.
The target in assay [6] is MRG15 MRG R201K (human) (UniProt Q9UBU8). The assay can be described thus: ITC.
The target of assay [7] is MRG15 MRG L287A (human) (UniProt Q9UBU8). Put plainly: ITC.
The target of assay [8] is MRG15 MRG polypeptide (residues 155–323), K201R background (human) (UniProt Q9UBU8). The assay can be described thus: ITC.
For assay [9] the target is unchanged. The assay can be described thus: NMR titration.

For DYVQPQLRRPFELLIAAAMERNPTQFQLPNELTCTTALPGSS (domain or fragment) [Pf1 MBD (MRG-binding domain, residues 200–241)], the Kd in assay [1] came to 0.067 µM; in assay [2] it was 0.096 µM; in assay [3] it was 0.075 µM; in assay [4], 0.194 µM; in assay [5], 0.184 µM; in assay [6], 0.023 µM. Besides, the Kd in [7] was 0.407 µM; in assay [8], 0.012 µM. Molecule DYVQPQLRRPFELLIAAAMERNPTQFQAPNELTCTTALPGSS (domain or fragment) [Pf1 MBD L227A] registered a dissociation constant Kd in [8] of 0.37 µM. On the same count and under the same terms, in the case of DYVQPQLRRPFELLIAAAMERNPTQAQLPNELTCTTALPGSS (domain or fragment) [Pf1 MBD F225A] it was 19 µM; in that of DYVQPQLRRPFEALIAAAMERNPTQFQLPNELTCTTALPGSS (domain or fragment) [Pf1 MBD L212A], 0.035 µM; in that of DYVQPQLRRPFELLIAAAMEREPTQFQLPNELTCTTALPGSS (domain or fragment) [Pf1 MBD N221E], 0.015 µM. The same measure, in the same setting: as for DYVQPQLRRPAELLIAAAMERNPTQFQLPNELTCTTALPGSS (domain or fragment) [Pf1 MBD F210A], the figure is 2.6 µM; as for DYVQPQLRRPFELAIAAAMERNPTQFQLPNELTCTTALPGSS (domain or fragment) [Pf1 MBD L213A], 0.28 µM.

Molecule DYVQPQLRRPFELLIAAAMERNPTQFQLANELTCTTALPGSS (domain or fragment) [Pf1 MBD P228A] showed a Kd in assay [8] of 0.085 µM.

B1: Pf1 (aa 114–258) (domain or fragment)
chain: ELGHVNGLVDKSGKRTTSPSSDTDLLDRSASKTELKAIAHARILERRASRPGTPTSSASTETPTSEQNDVDEDIIDVDEEPVAAEPDYVQPQLRRPFELLIAAAMERNPTQFQLPNELTCTTALPGSSKRRRKEETTGKNVKKTQ
As to B1, the Kd in assay [8] turned out to be 0.016 µM. For ERNPTQFQLPNELT [Pf1 peptide corresponding to the tail segment (residues 219–232)], in assay [9], the Kd stood at 119 µM.
